Positions count from the first letter of the chain named. Numbers in names are those of the source.

Experiment [1] addresses T1, TRBC1 protein (recombinant) (Homo sapiens, UniProt P01850).
T1 construct: T cell receptor beta constant 1 (TRBC1), recombinant protein bought from Acro Biosystems; The discussion calls it 'TRBC1 peptide'; see the vendor's data sheet for the catalogue number; also called recombinant TRBC1 protein; TRBC1 peptide; source: bought: Acro Biosystems, cat. no; TR1-H52H4
The experiment is described as follows: SPR; Biacore T200, 25 °C; antibodies captured on protein A/G immobilised on CM5 chips; TRBC1 or TRBC2 protein as analyte, threefold dilutions from 1,000 nM to 4.1 nM, multiple-cycle kinetics; PBS-P (20 mM phosphate pH 7.4, 137 mM NaCl, 2.7 mM KCl, 0.05% P20); 1:1 kinetics binding model. The conditions noted are these: both partners purified. In general terms: Surface plasmon resonance follows binding to a sensor surface in real time, without labels.

The target in experiment [2] is T2, TRBC2 protein (recombinant) (Homo sapiens, UniProt A0A5B9).
T2 construct: T cell receptor beta constant 2 (TRBC2), recombinant protein bought from Acro Biosystems; The discussion calls it 'TRBC2 peptide'; see the vendor's data sheet for the catalogue number; also called recombinant TRBC2 protein; TRBC2 peptide; source: bought: Acro Biosystems, cat. no; TR2-H52H3
The experiment is described as above. The conditions noted are these: both partners purified.

The target of the next experiment is T3, TRBC1^+ TCR on T cells (Homo sapiens, UniProt P01850).
T3 construct: variable part (TRBV-TRBD-TRBJ) of the beta chain, different in each cell line or T cell; T cell receptor beta constant 1 (TRBC1) as part of the alpha-beta TCR on the cell surface; On cells the beta chain stands in the whole TCR-CD3 complex; also called TRBC1^+ cells; source: endogenous on wild-type Jurkat and H9 cells; normal human T cells from PBMCs
The experiment is described as follows: flow cytometry on cells; T cell cancer cell lines stained with anti-TRBC2 antibodies with a mouse IgG2a Fc, then anti-mouse IgG-Alexa Fluor-647. The conditions noted are these: one partner purified. On the technique in general: In flow cytometry, cells or beads pass a laser one at a time.

B1: YR3-A5 anti-TRBC2 antibody (antibody, V domains shown)
VH: QVQLVQSGAEVKKPGASVKVSCKASPRGFHGYHMHWVRQAPGQGLEWMGFINPYNDDIQSNERFRGRVTMTSDKSTTTAYMELSSLRSEDTAVYYCARGNGKWGDGAYRFFDFWGQGTLVTVSS
VL: DVVMTQSPLSLPVTPGEPASISCRSSQNLVHSNGRTYLQWYLQKPGQSPQLLIYRVSNRFPGVPDRFSGSGSGTDFTLKISRVEAEDVGVYFCSQSTHVPYTFGGGTKVEIK
notes: also called parent; source: transient transfection of CHO cells (ExpiCHO or CHO-S), purified (HisTrap column or Protein A magnetic beads; SEC); copies: 2 + 2
For the molecule B1, the binding result in experiment [1] is listed as “no binding”. Further, the Kd in experiment [2] was found to be 0.023 µM.

B2: JX1.1 anti-TRBC2 antibody (antibody, V domains shown)
VH: B1 VH with R27Y
VL: B1 VL with V30K, S32R
notes: human VH; murine IgG2a Fc region; human VL; Human variable light and heavy chains fused to a murine IgG2a Fc region; also called clone V30K, S32R, R27Y; source: ExpiCHO or CHO-S cells, purified (HisTrap column or Protein A magnetic beads; SEC); copies: 2 + 2
On to B2, for which the binding result in experiment [1] was “no binding”. Besides, in experiment [2], the Kd is 0.01 µM and the koff came out at 0.0013 s⁻¹. In the experiment with TRBC1^+ TCR on T cells, the binding result is given as “no binding”.

One may read the Kd as the free concentration of one partner at which half of the binding sites on the other are occupied at equilibrium, for simple one-to-one binding. Usually koff stands for a measure of how fast the partners let go of each other.

Values taken from PMC13070007, “TRBC2-targeting antibody–drug conjugates for the treatment of T cell cancers” (Nature cancer, 2025).
